Measured values taken from patent US20260097138A1, “BIOMATERIAL COATED NANOSTRUCTURES FOR PHOTOACOUSTIC IMAGING AND PHOTOTHERMAL THERAPY OF TUMOR LESIONS” (OSPEDALE SAN RAFFAELE S.R.L., priority 2022, published 2026).
Starred links: 1 amine or outer side, 2 acyl side, 3 side chain; linkers in the order of their positions; H or OH if unused. Positions of bridges follow the written chain, without caps; N, C: chain ends. Non-standard residues stand in square brackets, D forms with d. Residues, ends and D or L forms follow the SMILES beside them. βAsp = O=C(O)[C@H](CC(=O)[*:2])N[*:1]; dPhg = N[C@@H](C(=O)O)c1ccccc1; Phg = N[C@H](C(=O)O)c1ccccc1

Tests used:
human integrin α5β1 = target: T1, human integrin α5β1 (Homo sapiens, UniProt P05556+P08648); assay: α5β1 integrin binding assay with HRP conjugates; conditions: for binding of HRP conjugate to plates coated with α5β1: no detergent in buffers, OPD substrate
T1 construct: purchased Immunological Sciences (Rome, Italy)
Protocol: The final products were called Iso4-HRP and ARA-HRP. The conjugates were diluted (range 0-400 nM) in 25 mM Tris-HCl, pH 7.4, containing 150 mM sodium chloride, 1 mM magnesium chloride, 1 mM manganese chloride and 1% BSA (binding buffer-2) and added to 96-well plate polyvinyl chloride (PVC) microtiter plates (Carlo Erba, cod. FA5280100) coated with or without α5β1 (4 μg/ml) and left to incubate for 2 h. The plates were washed with 25 mM Tris-HCl, pH 7.4, containing 150 mM of sodium chloride, 1 mM of magnesium chloride, 1 mM of manganese chloride, and bound peroxidase was detected by adding a chromogenic solution (o-phenylenediamine dihydrochloride, OPD). The chromogenic reaction was stopped by adding 1 N sulfuric acid. The absorbance at 490 nm was then measured using a microtiter plate reader. The effect of human urine (from a healthy donor) on the binding of Iso4-HRP was studied as described above by mixing Iso4-HRP (300 nM final concentration) and various amounts of urine diluted in binding buffer-2.

[1] = target: human integrin α5 subunit on the surface of human urothelial and bladder carcinoma cells (human) (UniProt P08648); assay: flow cytometry on 5637 bladder carcinoma cells, 5 µg/ml antibody
[2] = target: human integrin α5 subunit on the surface of human urothelial and bladder carcinoma cells (human) (UniProt P08648); assay: flow cytometry on RT4 bladder carcinoma cells, 5 µg/ml antibody
[3] = target: human integrin α5 subunit on the surface of human urothelial and bladder carcinoma cells (human) (UniProt P08648); assay: flow cytometry on PCS-420-010 primary urothelial cells, 5 µg/ml antibody
[4] = target: human integrin α5 subunit on the surface of human urothelial and bladder carcinoma cells (human) (UniProt P08648); assay: flow cytometry on HT1376 bladder carcinoma cells, 5 µg/ml antibody
[5] = target: human integrin α5 subunit on the surface of human urothelial and bladder carcinoma cells (human) (UniProt P08648); assay: flow cytometry on RT112 bladder carcinoma cells, 5 µg/ml antibody
[6] = target: human integrin α5 subunit on the surface of human urothelial and bladder carcinoma cells (human) (UniProt P08648); assay: flow cytometry on HBLAK primary urothelial cells, 5 µg/ml antibody
5637 cells [7] = assay: Binding of Iso4-Qdot / ARA-Qdot to cells (FACS, fluorescence microscopy); assay type: cell-based, human; conditions: flow cytometry and fluorescence microscopy, 2 h at 37° C.
Protocol: (§1) The binding of Iso4-Qdot and ARA-Qdot to MB49-Luc and 5637 cells was assessed through FACS and fluorescence microscopy experiments. FACS analysis was carried out as follows: the cells were detached with DPBS containing 5 mM EDTA pH 8.0 (DPBS-E), washed with DPBS, and suspended in 25 mM Hepes buffer, pH 7.4, containing 150 mM sodium chloride, 1 mM magnesium chloride, 1 mM manganese chloride, 1% BSA (binding buffer-1) and Iso4- or ARA-Qdot (range 30-0 nM, 5×10^5 cells/100 μl tube). After 2 h of incubation at 37° C., the cells were washed with binding buffer-1 without BSA and fixed with 4% formaldehyde. Bound fluorescence was detected using a CytoFLEX S cytofluorimeter (Beckman Coulter). The binding of Iso4-Qdot and ARA-Qdot to living 5637 cells was analyzed as follows: 5637 cells were cultured in a 96-well clear bottom black plate (5×10^4 cells/well) for 48 h, 5% CO2, 37° C. The plates were washed with binding buffer-1 and incubated with Iso4-Qdot or ARA-Qdot solution (30 nM in binding buffer-1) for 2 h at 37° C., 5% CO2. The cells were then washed with binding buffer-1, and fixed with 3% paraformaldehyde and 2% sucrose for 20 min. Bound fluorescence was acquired using the Cellomics ArrayScan XTI Studio Scan (Thermo Fischer Scientific) system.

MB49-Luc cells [8] = assay: Binding of Iso4-Qdot / ARA-Qdot to cells (FACS); assay type: cell-based, murine; conditions: flow cytometry, 2 h at 37° C.
Protocol: as §1

[9] = target: mouse integrin α5 subunit on the surface of MB49-Luc cells (mouse) (UniProt P11688); assay: flow cytometry on MB49-Luc cells, 5 µg/ml antibody
[10] = target: mouse integrin β1 subunit on the surface of MB49-Luc cells (mouse) (UniProt P09055); assay: flow cytometry on MB49-Luc cells, 5 µg/ml antibody
5637 cells [11] = assay: Cell adhesion assay on coated microtiter plates; assay type: cell-based, human; conditions: plates coated with 250 μg/ml GNRs
Protocol: (§2) The plates were washed and blocked with 2% BSA in DMEM or RPMI-1640 (200 μl/well, 1 h). MB49-Luc and 5637 cells were detached with DPBS-E, washed twice with DPBS, and suspended in DMEM or RPMI-1640 containing 0.1% BSA (binding buffer-3), and added to the coated-plates (1.5×10^5 cells/well, 100 μl). After 1-2 h of incubation at 37° C., 5% CO2, the plates were washed with binding buffer-3. Adherent cells were fixed and stained with 0.5% crystal violet in 20% methanol. After washing with water, the dye was extracted from cells using a 10% acetic acid solution (140 μl/well) and the absorbance at 570 nm was measured using a microplate reader.

MB49-Luc cells [12] = assay: Cell adhesion assay on coated microtiter plates; assay type: cell-based, murine; conditions: MB49-Luc cells; plates coated with 250 μg/ml GNRs
Protocol: as §2

[13] = test system: MB49-Luc derived orthotopic bladder tumor; assay: PAI of orthotopic MB49-Luc bladder tumor after intravesical instillation; assay type: in vivo, mice; conditions: intravesical co-administration
Protocol: Murine orthotopic bladder tumor model: All procedures and studies involving mice were approved by the Institutional Animal Care and Use Committee of San Raffaele Scientific Institute and performed according to the prescribed guidelines (IACUC, approval number 942). Female albino C57BL/6J mice (9 weeks old, weighing about 20 g, Charles River Laboratories, Italy) were anesthetized with ketamine (80 mg/kg) and xylazine (15 mg/kg) and kept in dorsal position. Using a 24-gauge catheter, the bladder of each mouse was emptied and instilled with or without MB49-Luc cells (10^5 cells/100 μl in DPBS). Thirty minutes later the catheter was removed, and mice were allowed to recover and returned to their cage. Tumor growth was monitored by measuring the tumor volume through US imaging (see below) and in vivo bioluminescent quantification after administration of luciferin (15 mg/kg, intra peritoneum) using the non-invasive In Vivo Imaging System (IVIS, PerkinElmer, USA).
US and PAI of GNRs@Chit and GNRs@Chit-Iso4: High-resolution US and PA imaging have been acquired using the Vevo LAZR-X platform (FUJIFILM VisualSonics, Inc., Toronto, ON, Canada). The imaging platform includes a high frequency US system (Vevo 3100) combined with an Nd:YAG nano-second pulsed laser with repetition rate of 20 Hz. The linear US transducer array Mx 550D consists of 256 elements with a nominal center frequency of 40 MHz (25-55 MHz bandwidth) and a spatial resolution of 40 μm with a maximum imaging depth of 15 mm. Light from the laser is delivered to the tissue through optical fibers mounted on either side of the transducer. During volumetric US-PA acquisitions, a stepper motor is used for the linear translation of the US transducer and optical fibers along the sample. The linear stepper motor moves in steps of a minimum of 0:1 mm while capturing 2-D parallel images, for a maximum 3D range distance of 6.4 cm.
3D B mode scan was carried out for in vitro (drop) and in vivo (mouse bladder) studies. The photoacoustic spectra between 680 nm and 970 nm were scanned with a step size of 5 nm; for the in vivo studies (murine bladder) the 3D multispectral PA scans were acquired selecting PA spectral curve of tissue components melanin, deoxy- and oxy-generated blood, and GNRs; the processed wavelengths (680; 722; 764; 810; 924; 970 nm) were automatically selected from the spectral curve used to spectrally unmix the GNRs signal from other endogenous tissue chromophore signals such as oxy, deoxy hemoglobin. The algorithm reported by Luke et al was used to select these wavelengths which is ideal for separating the signal from GNRs from other endogenous absorbers.
Data analyses were conducted using the Vevo® Lab software; volumes of interest were obtained by manually drawing Volumes of Interest (VOIs) on 3D B-mode images. GNRs, melanin, oxy- and deoxy-hemoglobin content were estimated through spectral unmixing analyses of the spectroscopic data.

[14] = target: human integrin β1 subunit on the surface of human urothelial and bladder carcinoma cells (human) (UniProt P05556); assay: flow cytometry on 5637 bladder carcinoma cells, 5 µg/ml antibody
[15] = target: human integrin β1 subunit on the surface of human urothelial and bladder carcinoma cells (human) (UniProt P05556); assay: flow cytometry on RT4 bladder carcinoma cells, 5 µg/ml antibody
[16] = target: human integrin β1 subunit on the surface of human urothelial and bladder carcinoma cells (human) (UniProt P05556); assay: flow cytometry on PCS-420-010 primary urothelial cells, 5 µg/ml antibody
[17] = target: human integrin β1 subunit on the surface of human urothelial and bladder carcinoma cells (human) (UniProt P05556); assay: flow cytometry on HT1376 bladder carcinoma cells, 5 µg/ml antibody
[18] = target: human integrin β1 subunit on the surface of human urothelial and bladder carcinoma cells (human) (UniProt P05556); assay: flow cytometry on RT112 bladder carcinoma cells, 5 µg/ml antibody
[19] = target: human integrin β1 subunit on the surface of human urothelial and bladder carcinoma cells (human) (UniProt P05556); assay: flow cytometry on HBLAK primary urothelial cells, 5 µg/ml antibody
[20] = target: α5β1 integrin on murine MB49-Luc bladder cancer cells (mouse, UniProt P11688 45-1053; P09055 21-798); assay: cell-based or functional assay
[21] = target: α5β1 integrin on human 5637 bladder cancer cells (human, UniProt P08648 42-1049; P05556 21-798); assay: cell-based or functional assay
α5β1 integrin on human 5637 bladder cancer cells, sequence (P08648 42-1049, chain 1 of 2): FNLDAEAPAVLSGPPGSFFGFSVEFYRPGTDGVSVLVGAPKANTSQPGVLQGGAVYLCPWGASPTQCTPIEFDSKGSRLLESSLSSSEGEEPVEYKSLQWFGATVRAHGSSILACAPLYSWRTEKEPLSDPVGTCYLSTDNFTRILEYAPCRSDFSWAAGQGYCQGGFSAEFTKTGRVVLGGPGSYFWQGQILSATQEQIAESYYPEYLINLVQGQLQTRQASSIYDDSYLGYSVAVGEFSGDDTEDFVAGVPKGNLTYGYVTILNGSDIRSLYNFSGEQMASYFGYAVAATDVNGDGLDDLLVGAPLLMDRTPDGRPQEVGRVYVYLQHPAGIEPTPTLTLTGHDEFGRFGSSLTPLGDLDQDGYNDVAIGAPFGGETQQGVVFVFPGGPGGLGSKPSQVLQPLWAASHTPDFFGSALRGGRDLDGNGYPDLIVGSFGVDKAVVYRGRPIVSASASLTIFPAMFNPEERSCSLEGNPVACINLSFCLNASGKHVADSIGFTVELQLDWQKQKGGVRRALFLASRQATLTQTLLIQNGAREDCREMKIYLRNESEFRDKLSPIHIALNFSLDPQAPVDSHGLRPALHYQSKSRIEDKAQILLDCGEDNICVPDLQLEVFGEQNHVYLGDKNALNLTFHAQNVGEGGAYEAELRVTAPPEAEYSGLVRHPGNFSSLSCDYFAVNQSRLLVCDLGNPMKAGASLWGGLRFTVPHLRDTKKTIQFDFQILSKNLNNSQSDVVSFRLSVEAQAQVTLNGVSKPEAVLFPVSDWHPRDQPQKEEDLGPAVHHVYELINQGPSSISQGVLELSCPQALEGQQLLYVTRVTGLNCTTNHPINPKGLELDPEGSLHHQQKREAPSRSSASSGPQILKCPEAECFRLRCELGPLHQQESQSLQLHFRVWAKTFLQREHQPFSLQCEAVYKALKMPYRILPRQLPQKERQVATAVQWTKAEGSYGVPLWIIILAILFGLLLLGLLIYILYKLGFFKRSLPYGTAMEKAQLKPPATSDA
α5β1 integrin on human 5637 bladder cancer cells, sequence (P05556 21-798, chain 2 of 2): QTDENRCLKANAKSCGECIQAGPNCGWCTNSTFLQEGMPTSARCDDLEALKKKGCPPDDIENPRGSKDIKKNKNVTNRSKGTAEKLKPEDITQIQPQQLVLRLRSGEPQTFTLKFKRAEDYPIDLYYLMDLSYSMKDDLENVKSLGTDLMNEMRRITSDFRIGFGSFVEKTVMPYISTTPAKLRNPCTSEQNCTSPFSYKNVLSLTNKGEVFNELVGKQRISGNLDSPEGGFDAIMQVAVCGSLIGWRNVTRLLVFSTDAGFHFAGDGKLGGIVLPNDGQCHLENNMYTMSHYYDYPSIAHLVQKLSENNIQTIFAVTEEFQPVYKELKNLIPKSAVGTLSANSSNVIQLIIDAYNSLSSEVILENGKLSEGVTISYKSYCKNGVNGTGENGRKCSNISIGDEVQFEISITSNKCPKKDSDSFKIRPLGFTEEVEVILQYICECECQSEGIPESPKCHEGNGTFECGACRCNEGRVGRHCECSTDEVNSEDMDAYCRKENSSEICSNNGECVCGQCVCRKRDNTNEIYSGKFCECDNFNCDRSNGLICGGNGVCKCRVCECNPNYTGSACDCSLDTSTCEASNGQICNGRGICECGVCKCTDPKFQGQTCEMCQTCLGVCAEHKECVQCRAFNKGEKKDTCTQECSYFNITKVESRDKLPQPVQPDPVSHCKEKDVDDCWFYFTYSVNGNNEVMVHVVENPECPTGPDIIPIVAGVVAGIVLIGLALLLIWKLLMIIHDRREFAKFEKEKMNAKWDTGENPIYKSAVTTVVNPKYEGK

T1 sequence (P08648 42-894 limits assumed): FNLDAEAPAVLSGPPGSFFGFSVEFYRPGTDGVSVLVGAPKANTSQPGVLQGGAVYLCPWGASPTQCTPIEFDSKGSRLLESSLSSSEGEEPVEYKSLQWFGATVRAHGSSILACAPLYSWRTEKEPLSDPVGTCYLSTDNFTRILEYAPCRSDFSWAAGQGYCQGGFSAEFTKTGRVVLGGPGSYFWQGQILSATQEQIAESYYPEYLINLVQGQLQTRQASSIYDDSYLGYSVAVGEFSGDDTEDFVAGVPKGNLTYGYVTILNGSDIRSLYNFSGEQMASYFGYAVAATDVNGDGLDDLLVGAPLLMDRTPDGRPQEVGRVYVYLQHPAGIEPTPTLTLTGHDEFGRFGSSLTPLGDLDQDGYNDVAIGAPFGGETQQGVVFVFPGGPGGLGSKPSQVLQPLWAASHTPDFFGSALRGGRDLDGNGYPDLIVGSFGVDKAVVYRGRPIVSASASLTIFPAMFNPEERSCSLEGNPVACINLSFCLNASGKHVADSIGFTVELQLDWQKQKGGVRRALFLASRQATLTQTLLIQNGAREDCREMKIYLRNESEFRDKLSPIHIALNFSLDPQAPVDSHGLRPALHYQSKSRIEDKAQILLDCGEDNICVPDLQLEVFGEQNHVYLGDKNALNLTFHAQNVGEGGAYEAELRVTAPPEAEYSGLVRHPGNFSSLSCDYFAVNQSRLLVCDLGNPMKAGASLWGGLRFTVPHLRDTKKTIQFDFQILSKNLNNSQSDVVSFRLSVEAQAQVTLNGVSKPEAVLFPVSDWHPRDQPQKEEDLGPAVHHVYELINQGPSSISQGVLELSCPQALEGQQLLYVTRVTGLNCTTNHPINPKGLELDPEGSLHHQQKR
T1 sequence (P08648 895-1049 partner limits assumed): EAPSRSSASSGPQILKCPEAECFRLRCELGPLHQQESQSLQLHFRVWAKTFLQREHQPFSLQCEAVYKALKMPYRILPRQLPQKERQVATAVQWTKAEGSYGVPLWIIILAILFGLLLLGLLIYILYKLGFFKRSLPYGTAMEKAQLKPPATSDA
T1 sequence (P05556 21-798): as the sequence (P05556 21-798, chain 2 of 2) above
human integrin α5 subunit on the surface of human urothelial and bladder carcinoma cells (human), sequence (P08648 42-1049): as the sequence (P08648 42-1049, chain 1 of 2) above
human integrin β1 subunit on the surface of human urothelial and bladder carcinoma cells (human), sequence (P05556 21-798): as the sequence (P05556 21-798, chain 2 of 2) above
mouse integrin β1 subunit on the surface of MB49-Luc cells (mouse), sequence (P09055 21-798): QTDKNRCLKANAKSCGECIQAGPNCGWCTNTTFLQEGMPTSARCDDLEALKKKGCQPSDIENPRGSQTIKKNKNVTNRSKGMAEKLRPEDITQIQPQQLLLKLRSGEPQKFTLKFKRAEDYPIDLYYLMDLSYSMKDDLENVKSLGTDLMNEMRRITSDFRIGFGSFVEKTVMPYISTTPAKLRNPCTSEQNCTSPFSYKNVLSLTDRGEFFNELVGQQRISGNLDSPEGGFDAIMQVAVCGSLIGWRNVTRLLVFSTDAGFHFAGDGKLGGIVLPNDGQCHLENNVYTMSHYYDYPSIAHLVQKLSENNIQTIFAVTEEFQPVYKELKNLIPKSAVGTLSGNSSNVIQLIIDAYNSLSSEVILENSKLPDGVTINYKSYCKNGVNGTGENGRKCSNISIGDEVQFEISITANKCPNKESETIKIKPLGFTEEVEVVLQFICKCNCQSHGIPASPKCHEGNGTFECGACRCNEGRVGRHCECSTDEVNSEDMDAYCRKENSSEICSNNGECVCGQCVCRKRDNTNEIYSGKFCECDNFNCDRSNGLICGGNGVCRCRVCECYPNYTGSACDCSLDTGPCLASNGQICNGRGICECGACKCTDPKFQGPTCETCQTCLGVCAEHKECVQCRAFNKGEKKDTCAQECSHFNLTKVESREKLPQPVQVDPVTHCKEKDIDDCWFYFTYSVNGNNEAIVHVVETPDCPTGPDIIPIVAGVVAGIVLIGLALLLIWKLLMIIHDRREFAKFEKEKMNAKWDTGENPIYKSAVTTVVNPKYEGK
mouse integrin α5 subunit on the surface of MB49-Luc cells (mouse), sequence (P11688 45-1053): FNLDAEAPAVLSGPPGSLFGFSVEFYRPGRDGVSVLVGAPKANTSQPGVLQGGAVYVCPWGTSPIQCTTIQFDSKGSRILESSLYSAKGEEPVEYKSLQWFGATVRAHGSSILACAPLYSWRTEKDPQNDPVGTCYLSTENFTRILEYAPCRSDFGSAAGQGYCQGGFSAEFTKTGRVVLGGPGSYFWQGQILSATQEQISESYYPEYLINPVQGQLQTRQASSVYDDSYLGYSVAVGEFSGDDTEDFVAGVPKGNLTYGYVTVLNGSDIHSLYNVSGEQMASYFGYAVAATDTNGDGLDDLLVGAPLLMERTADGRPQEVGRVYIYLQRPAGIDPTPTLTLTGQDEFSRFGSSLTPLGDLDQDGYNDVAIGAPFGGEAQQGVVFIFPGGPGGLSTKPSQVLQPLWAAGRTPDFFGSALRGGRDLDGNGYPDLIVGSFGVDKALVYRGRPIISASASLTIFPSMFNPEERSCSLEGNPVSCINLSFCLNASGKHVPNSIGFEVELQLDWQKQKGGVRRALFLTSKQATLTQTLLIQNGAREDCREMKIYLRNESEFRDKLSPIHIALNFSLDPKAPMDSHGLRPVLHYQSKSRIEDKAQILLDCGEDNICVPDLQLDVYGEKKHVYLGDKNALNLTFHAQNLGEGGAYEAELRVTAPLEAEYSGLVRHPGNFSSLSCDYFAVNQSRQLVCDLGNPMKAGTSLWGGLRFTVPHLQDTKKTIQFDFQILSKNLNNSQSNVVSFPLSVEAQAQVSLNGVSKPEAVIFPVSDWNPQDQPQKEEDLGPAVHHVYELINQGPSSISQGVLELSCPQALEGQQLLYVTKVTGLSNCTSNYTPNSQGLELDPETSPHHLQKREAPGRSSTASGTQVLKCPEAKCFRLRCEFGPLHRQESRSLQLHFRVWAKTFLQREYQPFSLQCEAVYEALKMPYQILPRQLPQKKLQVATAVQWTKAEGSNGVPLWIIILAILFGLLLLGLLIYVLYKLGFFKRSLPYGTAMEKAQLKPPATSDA
α5β1 integrin on murine MB49-Luc bladder cancer cells, sequence (P11688 45-1053, chain 1 of 2): as the sequence (P11688 45-1053) above
α5β1 integrin on murine MB49-Luc bladder cancer cells, sequence (P09055 21-798, chain 2 of 2): as the sequence (P09055 21-798) above

For “Iso4-HRP: Iso4 conjugated to maleimide-activated horseradish peroxidase via thiol group”, the “recovery of binding to α5β1 in human urine” value (human integrin α5β1; in 90% of urine, Iso4-HRP 300 nM) was “about 55%” and the “binding of HRP conjugate to plates coated with α5β1” value (human integrin α5β1) was “could bind α5β1 in a dose dependent manner”.

For “anti-α5 integrin mouse monoclonal antibody, clone P1D6”, the Fold (median fluorescence intensity over isotype control) [1] was 1.9 fold, the Fold (median fluorescence intensity over isotype control) [2] was 6 fold and the Fold (median fluorescence intensity over isotype control) [3] was 1.5 fold. For the same molecule, the Fold (median fluorescence intensity over isotype control) [4] was 4.1 fold, the Fold (median fluorescence intensity over isotype control) [5] was 5.8 fold and the Fold (median fluorescence intensity over isotype control) [6] was 2.1 fold.

“ARA-HRP: HRP control conjugate using the ARA peptide instead of Iso4” was tested, and the “binding of HRP conjugate to plates coated with α5β1” value (human integrin α5β1) was “but not ARA-HRP, could bind α5β1 in a dose dependent manner”.

“ARA-Qdot: c(CGARAG) peptide coupled to Qdot, negative control (cyclo(CGARAG); not fully specified (residue 1); also: coupled to Qdot605 quantum dot via Cys thiol)” was tested, and the “binding of Qdot conjugate to cells” value (5637 cells [7]) was “but not the ARA-Qdot, bound these cells” and the “binding of Qdot conjugate to cells” value (MB49-Luc cells [8]) was “but not the ARA-Qdot, bound these cells”.

“anti-α5 integrin hamster monoclonal antibody, clone HMα5-1” showed a Fold (mean fluorescence intensity over isotype control) [9] of 3.79 fold.

For “anti-β1 integrin hamster monoclonal antibody, clone HMβ1-1”, the Fold (mean fluorescence intensity over isotype control) [10] was 8.02 fold.

With “Iso4-Qdot: Iso4 coupled to fluorescent nanoparticles (Quantum Dots, Qdot) via the sulfhydryl group of the cysteine” the “binding of Qdot conjugate to cells” value (5637 cells [7]) was “bound these cells” and the “binding of Qdot conjugate to cells” value (MB49-Luc cells [8]) was “bound these cells”.

In the case of `N=C(N)NCCC[C@@H]1NC(=O)CNC(=O)C[C@@H](C(=O)O)NC(=O)[C@H](c2ccccc2)NC(=O)[C@H](CS)NC(=O)CNC1=O` [Iso4, c(CphgisoDGRG), reference compound] (GRGC[Phg]D-OH; lactam N-6), the “effect of excess free peptide on cell adhesion to GNRs@Chit-Iso4-coated plates” value (5637 cells [11]) is reported as “completely inhibited cell adhesion”, the “effect of excess free peptide on cell adhesion to GNRs@Chit-Iso4-coated plates” value (MB49-Luc cells [12]) is reported as “completely inhibited cell adhesion” and the “effect of co-administered excess free peptide on binding of GNR@Chit-Iso4 to MB49-Luc tumors” value [13] is reported as “reduced”.

“anti-β1 integrin mouse monoclonal antibody, clone P5D2” was tested, and the Fold (median fluorescence intensity over isotype control) [14] was 40.5 fold, the Fold (median fluorescence intensity over isotype control) [15] was 18.6 fold and the Fold (median fluorescence intensity over isotype control) [16] was 1.2 fold. The Fold (median fluorescence intensity over isotype control) [17] was 11.9 fold, the Fold (median fluorescence intensity over isotype control) [18] was 38.7 fold and the Fold (median fluorescence intensity over isotype control) [19] was 0.8 fold.

B1: GNRs@Chit-Iso4 (gold nanorods coated with thiolated chitosan, carrying Iso4 via maleimide-PEG12-NHS) (other)
peptide: cyclo(C[dPhg][βAsp]GRG)
modifications: not fully specified (residue 1); also: Cys thiol coupled via maleimide-PEG12-NHS linker to thiolated-chitosan-coated gold nanorods
B1 was tested, and the “effective concentration 50 (EC50) of cell adhesion to plates coated with GNRs@Chit-Iso4” value [20] was 0.73 µg/mL and the “effective concentration 50 (EC50) of cell adhesion to plates coated with GNRs@Chit-Iso4” value [21] was 1.3 µg/mL.
